According to a protein production outcome set (Wang et al. 2014):

Experiment: label from the status in PepcDB records

Protein production, failed:
MQHRQLWYRGGLGLALALVVVGYRGSRTVIRAVPRAQLSVDQKMPSTSSVFSASKLTLQDEANNSAPQVSPEAQESSGPDKQSDLTSGSSTSSSGISSGNSSGSTILENAKNNQTSETATTKAAEMVNGTVKMTLDTNGTLHLSGGSFGASLGSATGSWIVKTLTANGYQPTQVSKIVIDGKITATTMTNYSYLFANLPNVTAIDGLANLNLTGVTDISWLFLNCSQLGALDLNSWDVSSVIRMEGTFQNCAKLVTLNVANWNTDSLQYLIDTFNGDSSLTSLPVGKWNTSKVATMMRTFTDCSSLTSLDIANWDTRVVTNMSAIFRGMSKVKSLPIDKWQTGRVVNMQLVFSGDTSLESINVANWDTSRATALDGTFAKLPNIKSLPLDNWNTSNVQTIRSTFYGDTNLTQLPIDNWNVGKVFDFNSTFSGCASLTTAPVANWNTQSATNLGYTFEGMTSLTSLPVDNWQTGTVTNMAGTFSGVSQLKSLPISKWNTKNVQNMAGTFSKMSSVTALPVDNWQTGNVTTMRGIFTKVSQVKNLPVGKWNTAKVVDMGQVFYGNPQLTSLPIENWNTSSATDFSQLFAEDSGLQTLSLGAWNTTKVTNFESVFQNTSLDKLDLTGWNTNSAQTYTNAFSSKLPPKRLLLGPSFNFFKSESWHLPNPSSEAPYIGKWRSLNNKKVYTSADLMTKYDGKTIVGEFEWATGNTITVKYVDAAGKYLAPDTKISGATGDAYHIKPIEIQGYVPDQPDGVQGNFTDKDETITLMYNPGGLMFVSAPQTINFGQNPITGKSENYGASYDTGLVIQDGRSIGSTWSLNATLSASGFTSKQSGRPLAAVLSYKDQQTGGGSILTPGVARLIVNNHQTVSNQGVNILGQKTALGALSLQVPTDRALTDTYQATVTWTLNQGVPNR
MQIGLEAGLTNQLIDEIDQQPGHLPLLEFALTQLWSKQQNRLLTHQAYQEIGGVEEALANHAEAVYAQLTEADRQRAQQIFIQLVRLGDDTEATRRLTTREEVRLENWDLVTRLASSRLVVTNRNESTAEETVEIVHEALIRSWGRLEQWLIVDGDFLRWREQLRLAIRLWENSGHDQGVLLRGKALIDAQEWQLQRAQELNTNEIRFINKSGELRELEVKQQQRIRKIGISSLVTGLILALGLAGVAWLQGQKARMSETKAISSSAESFLNANLEFDGLIASIRAGRRIKGTDGIDANTRTQITETLQQSINFVREKNRLAEHDGMLESVSFSPDSKFIATASRDKTVKIWSLDGKKQLVVLREEKGEGFNSVAFSPDGTLMATGSWDNTAKIWSREGKRLHTLDGHKEAVLEVAFSPDSQLLATASWDNTVKLWSREGKLLHTLEGHKDKVNSITFSPDGQLIATVGWDNTMKLWNLDGKELRTFRGHQDMIWSVSFSPDGKQIATASGDRTVKLWSLDGKELQTLRGHQNGVNSVTFSPDGKLIATASGDRTVKLWNSKGQELETLYGHTDAVNSVAFSPDGTSIATAGNDKTAKIWKLNSPNSIIVRGHEDEVFDLVFSPNGKYIATASWDKTAKLWSIVGDKLQELRTFNGHQGRVNKLSFSPDGKYIATTSWDKTAKLWNLDGTLQKTLTGHKDTVWSVNFSPDGQLIATASEDKTVKLWNRDGELLKTLPRQSSVVNSAVFSPDGKLIATAGWDKTVKIWSIDGRLQKTLTGHTSGINSVTFSPDGKLIASASWDNTVKIWNLDGKELRTLRGHKNVVHNVTFSPDGKLIATASGDNTVKIWNINGQELRTLRGYKDAVWSLRFSLDGKTLATGSRYDIVVWHLYLDDLDQLLVRGCDWARDYLQNNPNVNPDEKSLCDGIRPIAQQ
MQINLSDLHLLRPLWLLLIIPGALLPWLWQRRHDLLARLRGTIAPHLLTHLLVTPQDSQRLRPVHLLSALLVLGALAAAGPTWEQDRPDFLHNRAPLIIALDLSPSMNASDLPPSRLEAAKHKLQQLVQQRRGARTGLIAYAGSAHLVLPASDDPALLDSFIQALGSDLIQRPGKDVLGVIRQAQRLLQAEHSPGSLLLISDGADTSQLAAIKQQLAGSPLQVLILAAGSSDGGIIRDASGQPLTDSDGRPQLGRFDSAALKQLAAASDAPLGSLTLNDDDLDWVQLHAQQHFTAASAPDRQLQWKDAGYWLCWPLLLLAFCCVRRGWSLNWLGALLLGLGLSLQAPTARANTLADAFFSADQQGRWAFEHGHYPAAAALFTDPYWKGIAAYKAADFDLALASFARLDSAAAYFYLGNIHVRRFKFDEAIAAYQQALKLQPRFAEASANLALAQALKKDTESAQQNAPEVKPDAIKFDKPAGKGQNKKVETQEAASDELWLQNLSTSPAAFLRQKFSLQDLDNTTPQVTP
MQIVGSVALMLWGIRLVRTGFIRAFGGSLRHYLGLAISGRLTSFGVGLAITVFLQSSTATALIISSFASKGLVQTPAALAVMLGADVGTSISAQILSFNLSWLAYAAILIGFFLHGRGGRFATRQIGRAIVGLGMVLLALSLIRMSSQPLREADGLAYVLSALEGEVLLTLFLMAVLTWLVHSSLAVVLLTASLASAGIVPTGTGLVMILGANIGGTIPPIIATLSTGPQSQHAALGNAGFKLLASLLVLPFLPWVGERLQSFGGDAQVLVNFHLTFNLLVATLFLPWVQTAAALLARVFPDTGAGAVEPVTKYLDKELITSPALALTSATRELYRVNERIEDSLALLSGGIAARDQVDVQGAQENRARVAAMLEEFKFYLTDITREEISESDSAKAMNLLLIATNLGHVSELVTNAVELTASTSHEQIRFSEAGTAELLEMLELIHQGIRLALSAALLGDAKVRKTLQKGRKELERMVDESRQAHFSRLAEGTLSSISTTSLHNELLRDFSRIYYHIYTASKIGGRDSSVMIRG
MQKEKAPIGLYFLLIAVMASWGFNVTMTKVLVSYFPTVTMTSFRIFTAAITVIIILFITKKLRLPTKREFGLIFLASIFNIVIHHFFLSNGLKLTTGTNAGLILGSAPIVVAIFSVVFLRERIGAWRALGFLAGIFGVSLVVLSNGTGISGISLGDIDIFIAMASQAFSFIIIKKLAGSMDTGLMTGYMLFLGSVMLFALSRFMEPGGVSELVAVHSWKLWLLFVVSAVVATAFGNFVYNYAVGKIGPSRSAIFMNFNPLFSLIGALLFLGEAIKIPQLVGFVFIIIGVLLGSGALMDLIYERKKTKVRDPEKLLEKEV
MQKFIRDFTLPAAFAGFVTFLIGISVSSVLVIQAAQILGANTPQITSWFWALGIGIGLSGLILSWKFKYPVATSWSTAGLALIIATGSGYSLHEAIGAFLLCGLLTALLGFFGVFQKALAYIPQSLTSAMLAGVLLKFGIAIFGNMQDHWQFIISLLAVYIVSKRLWPRYCIVITVIAGVMICPFFMEFHLPTLHWELAKPEWITPHFTGSAILGLALPLFVINMASQYLPGIAMIKSYGYNPNVNQLIGWTGATQTLLAPFGCYTVNIAAISAAVSLDDQVHPDPAKRYIAGISCGFFYILMGLFAATLTSLLMSFPSLFIVALAGIALFGTISHNIAIAFQEPTDREAALLTFLCSASGIQFFGIGSAFWGLIVGVIVSMVLKTKFKKS
MQKGKDLTLRLMIVDDSVESAETIVTALRNGGIAVRPSRPQSQEELASMLSGQIDLAILGQAQQIPMSALQTQIAGSGKDIPILLLAERIEENALVEAASHGVRAIALRHRPAHLLALVRSEWDDLQARRGLRRIEAQMRETERRCDALIASSRDPIAYVHEGMHIRANDAYLEMFGFESFDDVEGISLLDMIAAQYVDDFKQLLKAMSKGEPPPAQYKLDARRVEGDTFPATMEFATATYEGEPCIQVVFRRREEFDPELAREVEDLRQRDQVTGLLNRPTFMVALEQAVAQAGRSEGQSGFLLIEPDHYARILPEFGLDSADALIAALAAHVASVLDDSVLAARFGEHSFALLLNGNYARTHALAETVRNAFAQHVFSVGTRSATVTVSIGGVQIGEKIASIGQVLNRGTEAVRTTAELGGNAVSIYDPAAADRAEEERIERWVEQLREALVGDGFLLHYQPVLNLQGEPLELYQAFLRLERNGEMMSPNAFMAIAEEHDLVTEIDRWVVARAIRQLGERQRAGHKTHLLVRIGPNSFSDPQMIDTIREQLAVYGVPGERLWLQTPESKVFTHLRNAQQFLAAVSAMDCKVGLEQFGSGLDSFQLLAHFHPAFLKLDRGITGDIASARDSQEKIREITSRAQPAGILTMAEFVADAQSMSSFFSAGVDYVQGDFVAPTGPLMNYEFG
